Results published in patent US20260199447A1 (US Dept. of Health and Human Services, published 2026).

Columns and labels:
[1] = molecular target: T1, EEEV Env-pseudotyped lentiviral reporter virus (Eastern equine encephalitis virus (EEEV), UniProt P08768 799-1239; P08768 323-742); test: cell-based or functional assay
T1 sequence 1: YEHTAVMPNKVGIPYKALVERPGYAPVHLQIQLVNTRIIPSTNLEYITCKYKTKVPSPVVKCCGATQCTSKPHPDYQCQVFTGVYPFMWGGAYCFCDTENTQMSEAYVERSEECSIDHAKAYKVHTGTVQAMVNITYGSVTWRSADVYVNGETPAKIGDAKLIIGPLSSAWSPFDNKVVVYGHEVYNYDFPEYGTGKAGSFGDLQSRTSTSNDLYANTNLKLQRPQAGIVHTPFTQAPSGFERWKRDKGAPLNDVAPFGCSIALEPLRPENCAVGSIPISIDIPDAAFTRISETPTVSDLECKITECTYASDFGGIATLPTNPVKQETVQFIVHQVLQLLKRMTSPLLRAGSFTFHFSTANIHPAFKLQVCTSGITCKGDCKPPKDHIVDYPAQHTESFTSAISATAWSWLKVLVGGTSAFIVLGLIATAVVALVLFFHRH
T1 sequence 2: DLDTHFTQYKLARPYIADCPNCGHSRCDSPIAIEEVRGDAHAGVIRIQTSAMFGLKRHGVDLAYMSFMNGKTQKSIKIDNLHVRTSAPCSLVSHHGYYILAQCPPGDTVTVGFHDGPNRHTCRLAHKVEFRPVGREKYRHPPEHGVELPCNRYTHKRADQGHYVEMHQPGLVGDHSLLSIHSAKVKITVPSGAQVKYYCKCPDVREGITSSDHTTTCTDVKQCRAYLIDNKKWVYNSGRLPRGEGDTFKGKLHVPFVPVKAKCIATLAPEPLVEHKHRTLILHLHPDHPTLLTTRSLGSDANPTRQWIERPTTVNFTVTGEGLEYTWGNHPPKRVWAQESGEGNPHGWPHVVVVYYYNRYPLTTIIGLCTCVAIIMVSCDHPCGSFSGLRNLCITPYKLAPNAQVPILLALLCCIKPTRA

[2] = molecular target: T2, WEEV Env-pseudotyped lentiviral reporter virus (Western equine encephalitis virus (WEEV), UniProt P13897 798-1236; P13897 320-742); test: cell-based or functional assay
T2 sequence 1: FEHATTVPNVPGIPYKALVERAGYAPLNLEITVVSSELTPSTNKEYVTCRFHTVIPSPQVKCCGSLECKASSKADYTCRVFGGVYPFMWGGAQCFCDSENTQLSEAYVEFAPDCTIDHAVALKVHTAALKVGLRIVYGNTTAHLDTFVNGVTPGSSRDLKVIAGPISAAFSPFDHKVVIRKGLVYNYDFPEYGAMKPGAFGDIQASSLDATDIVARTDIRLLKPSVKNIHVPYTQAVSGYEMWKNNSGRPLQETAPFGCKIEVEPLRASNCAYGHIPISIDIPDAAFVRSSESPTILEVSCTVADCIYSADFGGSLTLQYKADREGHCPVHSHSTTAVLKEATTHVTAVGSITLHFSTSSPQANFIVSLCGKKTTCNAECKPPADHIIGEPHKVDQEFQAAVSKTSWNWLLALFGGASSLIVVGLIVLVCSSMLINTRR
T2 sequence 2: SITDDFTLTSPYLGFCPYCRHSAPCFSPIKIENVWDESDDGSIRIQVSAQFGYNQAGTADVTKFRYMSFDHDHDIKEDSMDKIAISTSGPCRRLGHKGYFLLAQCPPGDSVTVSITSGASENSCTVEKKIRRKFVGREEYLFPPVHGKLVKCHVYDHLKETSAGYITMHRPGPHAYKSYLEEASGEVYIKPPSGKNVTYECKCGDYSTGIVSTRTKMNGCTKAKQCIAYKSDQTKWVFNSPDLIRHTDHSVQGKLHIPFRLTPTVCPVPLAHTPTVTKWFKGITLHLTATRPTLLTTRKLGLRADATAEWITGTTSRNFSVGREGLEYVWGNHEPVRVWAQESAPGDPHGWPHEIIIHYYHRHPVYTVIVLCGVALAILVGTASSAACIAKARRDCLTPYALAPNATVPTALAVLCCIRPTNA

[3] = molecular target: T3, VEEV Env-pseudotyped lentiviral reporter virus (Venezuelan equine encephalitis virus …, UniProt P09592 813-1254; P09592 335-757); test: cell-based or functional assay
T3 sequence 1: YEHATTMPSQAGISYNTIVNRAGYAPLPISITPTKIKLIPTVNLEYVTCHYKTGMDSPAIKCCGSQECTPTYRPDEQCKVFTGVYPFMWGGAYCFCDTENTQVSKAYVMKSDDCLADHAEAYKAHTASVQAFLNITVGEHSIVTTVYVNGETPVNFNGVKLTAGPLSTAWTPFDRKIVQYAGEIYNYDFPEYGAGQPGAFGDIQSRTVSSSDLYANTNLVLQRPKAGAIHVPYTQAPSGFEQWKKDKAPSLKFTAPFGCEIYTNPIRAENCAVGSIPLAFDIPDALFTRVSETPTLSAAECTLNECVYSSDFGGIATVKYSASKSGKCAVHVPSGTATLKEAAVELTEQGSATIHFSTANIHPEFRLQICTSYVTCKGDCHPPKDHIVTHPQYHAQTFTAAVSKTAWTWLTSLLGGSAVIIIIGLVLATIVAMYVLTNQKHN
T3 sequence 2: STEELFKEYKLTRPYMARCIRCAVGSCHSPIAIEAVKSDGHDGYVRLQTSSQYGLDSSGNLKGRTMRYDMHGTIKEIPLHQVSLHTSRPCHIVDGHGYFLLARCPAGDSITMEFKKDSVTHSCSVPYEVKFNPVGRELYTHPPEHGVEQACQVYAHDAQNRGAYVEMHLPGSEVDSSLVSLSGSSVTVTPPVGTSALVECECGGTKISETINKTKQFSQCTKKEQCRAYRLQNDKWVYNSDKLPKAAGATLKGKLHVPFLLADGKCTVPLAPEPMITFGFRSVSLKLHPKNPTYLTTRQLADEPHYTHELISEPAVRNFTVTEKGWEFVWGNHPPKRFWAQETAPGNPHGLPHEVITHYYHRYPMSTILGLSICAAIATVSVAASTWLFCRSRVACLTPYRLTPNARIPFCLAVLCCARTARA

CHIKV VLP = CHIKV VLP (chikungunya virus (CHIKV), UniProt Q8JUX5 810-1248; Q8JUX5 326-748)
Chain of CHIKV VLP (Q8JUX5 810-1248 limits assumed, chain 1 of 2): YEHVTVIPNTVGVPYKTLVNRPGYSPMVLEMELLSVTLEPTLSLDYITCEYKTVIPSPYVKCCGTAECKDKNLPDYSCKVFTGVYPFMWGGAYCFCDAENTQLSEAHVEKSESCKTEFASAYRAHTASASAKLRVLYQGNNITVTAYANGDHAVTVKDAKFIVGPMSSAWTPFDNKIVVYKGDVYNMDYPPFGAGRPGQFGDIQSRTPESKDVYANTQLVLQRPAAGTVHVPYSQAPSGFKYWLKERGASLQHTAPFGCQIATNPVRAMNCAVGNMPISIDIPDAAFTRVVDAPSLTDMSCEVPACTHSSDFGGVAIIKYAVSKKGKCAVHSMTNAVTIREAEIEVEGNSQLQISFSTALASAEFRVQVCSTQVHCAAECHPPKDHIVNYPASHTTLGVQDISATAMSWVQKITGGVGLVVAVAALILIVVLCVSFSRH
Chain of CHIKV VLP (Q8JUX5 326-748 limits assumed, chain 2 of 2): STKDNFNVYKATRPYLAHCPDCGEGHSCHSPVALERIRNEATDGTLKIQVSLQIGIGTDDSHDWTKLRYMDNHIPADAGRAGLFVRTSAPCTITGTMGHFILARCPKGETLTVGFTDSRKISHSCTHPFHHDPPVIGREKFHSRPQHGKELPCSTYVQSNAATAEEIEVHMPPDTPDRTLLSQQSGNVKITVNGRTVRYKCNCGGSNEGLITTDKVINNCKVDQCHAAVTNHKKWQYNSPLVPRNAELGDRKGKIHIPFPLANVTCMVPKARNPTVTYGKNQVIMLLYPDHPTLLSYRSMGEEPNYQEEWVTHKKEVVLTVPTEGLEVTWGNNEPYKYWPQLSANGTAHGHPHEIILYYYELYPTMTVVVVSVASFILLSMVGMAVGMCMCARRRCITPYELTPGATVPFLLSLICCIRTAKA

B1: SKT05 (antibody, V domains shown)
VH: EVQLVESGAGLVQPGGSLRLSCAASGFTFSDSWMSWVRQSPGKGLEWVGRIKGKPDGETAAYAASVKGRFSISRDDSKNTLYLQMNSLKTEDTAVYYCTRDDRTSCRRGVCYAAFHSWGQGVLVTVSS
VL: DIQMTQSPSSLSASAGDRVTLTCRASQAISFYLAWYQQKPGKAPKRLIYDASELQGGVPSRFSGSGSGTDFTLSINSLQPEDSATYFCLQYDSPPFTFGPGTKVEIKR
- IC80, neutralization of Env-pseudotyped lentiviral reporter virus [1]: 0.39 µg/mL
- IC80, neutralization of Env-pseudotyped lentiviral reporter virus [2]: 0.07 µg/mL
- IC80, neutralization of Env-pseudotyped lentiviral reporter virus [3]: 0.06 µg/mL
- EC50 (CHIKV VLP): 0.1 µg/mL
